Starred links: 1 amine or outer side, 2 acyl side, 3 side chain; linkers in the order of their positions; H or OH if unused. Non-standard residues stand in square brackets, D forms with d. *: point of attachment. dThr(OBz) = D-threonine with an O-benzyl (OBz) group, C[C@H](OCc1ccccc1)[C@@H](N[*:1])C(=O)[*:2]; Thr(OBz) = threonine with O-benzyl ester (OBz); dBpa = N[C@H](Cc1ccc(C(=O)c2ccccc2)cc1)C(=O)O; Boc = CC(C)(C)OC(=O)*; Aib = CC(C)(N)C(=O)O
What follows are binders tested against T1, γ-secretase in Chinese hamster ovary (CHO) cells stably transfected with human APP (assay: cell-based or functional assay).

| Binder | IC50 of Aβ production in APP-transfected cells | IC50 in the same cell-based assay using CHO cells stably transfected with human APP (total Aβ production) | IC50 in a cell-based assay from APP-transfected CHO cells |
| --- | --- | --- | --- |
| Boc-[Aib]AL[Aib]AL[Aib]AL[Aib]-OMe (SMILES COC(=O)C(C)(C)NC(=O)[C@H](CC(C)C)NC(=O)[C@H](C)NC(=O)C(C)(C)NC(=O)[C@H](CC(C)C)NC(=O)[C@H](C)NC(=O)C(C)(C)NC(=O)[C@H](CC(C)C)NC(=O)[C@H](C)NC(=O)C(C)(C)NC(=O)OC(C)(C)C) [Boc-Aib-Ala-Leu-Aib-Ala-Leu-Aib-Ala-Leu-Aib-OMe (SEQ ID NO:13)] | 2000 nM | – | – |
| Boc-[dV]G[Aib][dV][dV][dBpa][Aib][dThr(OBz)][dV][Aib]-OMe (SMILES COC(=O)C(C)(C)NC(=O)[C@H](NC(=O)[C@H](NC(=O)C(C)(C)NC(=O)[C@@H](Cc1ccc(C(=O)c2ccccc2)cc1)NC(=O)[C@H](NC(=O)[C@H](NC(=O)C(C)(C)NC(=O)CNC(=O)[C@H](NC(=O)OC(C)(C)C)C(C)C)C(C)C)C(C)C)[C@H](C)OCc1ccccc1)C(C)C) [Boc-D-Val-Gly-Aib-D-Val-D-Val-D-BPA-Aib-D-Thr(OBz)-D-Val-Aib-OMe (SEQ ID NO:11)] | – | 100 nM | – |
| Boc-[dV]G[Aib][dV][dV][dI][Aib][dThr(OBz)][dV][Aib][dV][dI][Aib]-OMe (SMILES CC[C@@H](C)[C@@H](NC(=O)[C@H](NC(=O)[C@H](NC(=O)C(C)(C)NC(=O)CNC(=O)[C@H](NC(=O)OC(C)(C)C)C(C)C)C(C)C)C(C)C)C(=O)NC(C)(C)C(=O)N[C@@H](C(=O)N[C@@H](C(=O)NC(C)(C)C(=O)N[C@@H](C(=O)N[C@@H](C(=O)NC(C)(C)C(=O)OC)[C@H](C)CC)C(C)C)C(C)C)[C@H](C)OCc1ccccc1) [D-peptide Boc-Val-Gly-Aib-Val-Val-Ile-Aib-Thr(OBz)-Val-Aib-Val-Ile-Aib-OMe (SEQ ID NO:18)] | – | – | 9 nM |

Biological target: T1, γ-secretase in Chinese hamster ovary …
Assay: cell-based or functional assay
Remark: another data set of the same source

| Binder | IC50 (concentration that reduced production of total Aβ by 50% in CHO cells stably transfected with human APP) |
| --- | --- |
| Boc-A[Thr(OBz)][Aib]IV[Aib]-OMe [Boc-Ala-Thr(OBz)-Aib-Ile-Val-Aib-OMe (SEQ ID NO:1), all-L] | 25000 nM |
| Boc-VG[Aib]VVI[Aib][Thr(OBz)]V[Aib]-OMe [Boc-Val-Gly-Aib-Val-Val-Ile-Aib-Thr(OBz)-Val-Aib-OMe (SEQ ID NO:10), all-L] | 3000 nM |
| Boc-IA[Thr(OBz)][Aib]IV[Aib]-OMe [Boc-Ile-Ala-Thr(OBz)-Aib-Ile-Val-Aib-OMe (SEQ ID NO:2), all-L] | 15000 nM |
| Boc-[Aib]IA[Thr(OBz)][Aib]IV[Aib]-OMe [Boc-Aib-Ile-Ala-Thr(OBz)-Aib-Ile-Val-Aib-OMe (SEQ ID NO:3), all-L] | 10000 nM |
| Boc-V[Aib]IA[Thr(OBz)][Aib]IV[Aib]-OMe [Boc-Val-Aib-Ile-Ala-Thr(OBz)-Aib-Ile-Val-Aib-OMe (SEQ ID NO:4), all-L] | 2000 nM |
| Boc-GV[Aib]IA[Thr(OBz)][Aib]IV[Aib]-OMe [Boc-Gly-Val-Aib-Ile-Ala-Thr(OBz)-Aib-Ile-Val-Aib-OMe (SEQ ID NO:5), all-L] | 5000 nM |
| Boc-VI[Aib][Thr(OBz)]V[Aib]-OMe [Boc-Val-Ile-Aib-Thr(OBz)-Val-Aib-OMe (SEQ ID NO:6), all-L] | 12000 nM |
| Boc-VVI[Aib][Thr(OBz)]V[Aib]-OMe [Boc-Val-Val-Ile-Aib-Thr(OBz)-Val-Aib-OMe (SEQ ID NO:7), all-L] | 6000 nM |
| Boc-[Aib]VVI[Aib][Thr(OBz)]V[Aib]-OMe [Boc-Aib-Val-Val-Ile-Aib-Thr(OBz)-Val-Aib-OMe (SEQ ID NO:8), all-L] | 6000 nM |
| Boc-G[Aib]VVI[Aib][Thr(OBz)]V[Aib]-OMe [Boc-Gly-Aib-Val-Val-Ile-Aib-Thr(OBz)-Val-Aib-OMe (SEQ ID NO:9), all-L] | 3000 nM |

These binders were tested against γ-secretase (detergent-solubilized membranes from HeLa cells) (assay: cell-based or functional assay).

| Binder | Cell-free Assay IC50 (concentration required for 50% inhibition of Aβ40 production) |
| --- | --- |
| Boc-VVI[Aib][Thr(OBz)]V[Aib]VI[Aib]-OMe [L-peptide Boc-Val-Val-Ile-Aib-Thr(OBz)-Val-Aib-Val-Ile-Aib-OMe (SEQ ID NO:15)] | 10000 nM |
| Boc-[Aib]VVI[Aib][Thr(OBz)]V[Aib]VI[Aib]-OMe [L-peptide Boc-Aib-Val-Val-Ile-Aib-Thr(OBz)-Val-Aib-Val-Ile-Aib-OMe (SEQ ID NO:16)] | 3100 nM |
| Boc-G[Aib]VVI[Aib][Thr(OBz)]V[Aib]VI[Aib]-OMe [L-peptide Boc-Gly-Aib-Val-Val-Ile-Aib-Thr(OBz)-Val-Aib-Val-Ile-Aib-OMe (SEQ ID NO:17)] | 360 nM |
| Boc-VG[Aib]VVI[Aib][Thr(OBz)]V[Aib]VI[Aib]-OMe [L-peptide Boc-Val-Gly-Aib-Val-Val-Ile-Aib-Thr(OBz)-Val-Aib-Val-Ile-Aib-OMe (SEQ ID NO:18)] | 780 nM |
| Boc-[Aib]VG[Aib]VVI[Aib][Thr(OBz)]V[Aib]VI[Aib]-OMe [L-peptide Boc-Aib-Val-Gly-Aib-Val-Val-Ile-Aib-Thr(OBz)-Val-Aib-Val-Ile-Aib-OMe (SEQ ID NO:19)] | 910 nM |
| Boc-L[Aib]VG[Aib]VVI[Aib][Thr(OBz)]V[Aib]VI[Aib]-OMe [L-peptide Boc-Leu-Aib-Val-Gly-Aib-Val-Val-Ile-Aib-Thr(OBz)-Val-Aib-Val-Ile-Aib-OMe (SEQ ID NO:20)] | 4700 nM |
| Boc-GL[Aib]VG[Aib]VVI[Aib][Thr(OBz)]V[Aib]VI[Aib]-OMe | 11000 nM |
| Boc-[dV][dV][dI][Aib][dThr(OBz)][dV][Aib][dV][dI][Aib]-OMe (SMILES CC[C@@H](C)[C@@H](NC(=O)[C@H](NC(=O)[C@H](NC(=O)OC(C)(C)C)C(C)C)C(C)C)C(=O)NC(C)(C)C(=O)N[C@@H](C(=O)N[C@@H](C(=O)NC(C)(C)C(=O)N[C@@H](C(=O)N[C@@H](C(=O)NC(C)(C)C(=O)OC)[C@H](C)CC)C(C)C)C(C)C)[C@H](C)OCc1ccccc1) [D-peptide Boc-Val-Val-Ile-Aib-Thr(OBz)-Val-Aib-Val-Ile-Aib-OMe (SEQ ID NO:15)] | 25 nM |
| Boc-[Aib][dV][dV][dI][Aib][dThr(OBz)][dV][Aib][dV][dI][Aib]-OMe (SMILES CC[C@@H](C)[C@@H](NC(=O)[C@H](NC(=O)[C@H](NC(=O)C(C)(C)NC(=O)OC(C)(C)C)C(C)C)C(C)C)C(=O)NC(C)(C)C(=O)N[C@@H](C(=O)N[C@@H](C(=O)NC(C)(C)C(=O)N[C@@H](C(=O)N[C@@H](C(=O)NC(C)(C)C(=O)OC)[C@H](C)CC)C(C)C)C(C)C)[C@H](C)OCc1ccccc1) [D-peptide Boc-Aib-Val-Val-Ile-Aib-Thr(OBz)-Val-Aib-Val-Ile-Aib-OMe (SEQ ID NO:16)] | 28 nM |
| Boc-G[Aib][dV][dV][dI][Aib][dThr(OBz)][dV][Aib][dV][dI][Aib]-OMe (SMILES CC[C@@H](C)[C@@H](NC(=O)[C@H](NC(=O)[C@H](NC(=O)C(C)(C)NC(=O)CNC(=O)OC(C)(C)C)C(C)C)C(C)C)C(=O)NC(C)(C)C(=O)N[C@@H](C(=O)N[C@@H](C(=O)NC(C)(C)C(=O)N[C@@H](C(=O)N[C@@H](C(=O)NC(C)(C)C(=O)OC)[C@H](C)CC)C(C)C)C(C)C)[C@H](C)OCc1ccccc1) [D-peptide Boc-Gly-Aib-Val-Val-Ile-Aib-Thr(OBz)-Val-Aib-Val-Ile-Aib-OMe (SEQ ID NO:17)] | 12 nM |
| Boc-[dV]G[Aib][dV][dV][dI][Aib][dThr(OBz)][dV][Aib][dV][dI][Aib]-OMe (SMILES CC[C@@H](C)[C@@H](NC(=O)[C@H](NC(=O)[C@H](NC(=O)C(C)(C)NC(=O)CNC(=O)[C@H](NC(=O)OC(C)(C)C)C(C)C)C(C)C)C(C)C)C(=O)NC(C)(C)C(=O)N[C@@H](C(=O)N[C@@H](C(=O)NC(C)(C)C(=O)N[C@@H](C(=O)N[C@@H](C(=O)NC(C)(C)C(=O)OC)[C@H](C)CC)C(C)C)C(C)C)[C@H](C)OCc1ccccc1) [D-peptide Boc-Val-Gly-Aib-Val-Val-Ile-Aib-Thr(OBz)-Val-Aib-Val-Ile-Aib-OMe (SEQ ID NO:18)] | 0.14 nM |
| Boc-[Aib][dV]G[Aib][dV][dV][dI][Aib][dThr(OBz)][dV][Aib][dV][dI][Aib]-OMe (SMILES CC[C@@H](C)[C@@H](NC(=O)[C@H](NC(=O)[C@H](NC(=O)C(C)(C)NC(=O)CNC(=O)[C@H](NC(=O)C(C)(C)NC(=O)OC(C)(C)C)C(C)C)C(C)C)C(C)C)C(=O)NC(C)(C)C(=O)N[C@@H](C(=O)N[C@@H](C(=O)NC(C)(C)C(=O)N[C@@H](C(=O)N[C@@H](C(=O)NC(C)(C)C(=O)OC)[C@H](C)CC)C(C)C)C(C)C)[C@H](C)OCc1ccccc1) [D-peptide Boc-Aib-Val-Gly-Aib-Val-Val-Ile-Aib-Thr(OBz)-Val-Aib-Val-Ile-Aib-OMe (SEQ ID NO:19)] | 14 nM |
| Boc-[dL][Aib][dV]G[Aib][dV][dV][dI][Aib][dThr(OBz)][dV][Aib][dV][dI][Aib]-OMe (SMILES CC[C@@H](C)[C@@H](NC(=O)[C@H](NC(=O)[C@H](NC(=O)C(C)(C)NC(=O)CNC(=O)[C@H](NC(=O)C(C)(C)NC(=O)[C@@H](CC(C)C)NC(=O)OC(C)(C)C)C(C)C)C(C)C)C(C)C)C(=O)NC(C)(C)C(=O)N[C@@H](C(=O)N[C@@H](C(=O)NC(C)(C)C(=O)N[C@@H](C(=O)N[C@@H](C(=O)NC(C)(C)C(=O)OC)[C@H](C)CC)C(C)C)C(C)C)[C@H](C)OCc1ccccc1) [D-peptide Boc-Leu-Aib-Val-Gly-Aib-Val-Val-Ile-Aib-Thr(OBz)-Val-Aib-Val-Ile-Aib-OMe (SEQ ID NO:20)] | 16 nM |
| Boc-G[dL][Aib][dV]G[Aib][dV][dV][dI][Aib][dThr(OBz)][dV][Aib][dV][dI][Aib]-OMe (SMILES CC[C@@H](C)[C@@H](NC(=O)[C@H](NC(=O)[C@H](NC(=O)C(C)(C)NC(=O)CNC(=O)[C@H](NC(=O)C(C)(C)NC(=O)[C@@H](CC(C)C)NC(=O)CNC(=O)OC(C)(C)C)C(C)C)C(C)C)C(C)C)C(=O)NC(C)(C)C(=O)N[C@@H](C(=O)N[C@@H](C(=O)NC(C)(C)C(=O)N[C@@H](C(=O)N[C@@H](C(=O)NC(C)(C)C(=O)OC)[C@H](C)CC)C(C)C)C(C)C)[C@H](C)OCc1ccccc1) | 26 nM |

— patent US20050272659A1 (BRIGHAM AND WOMEN S HOSPITAL, published 2005)
